Numbered stars: 1 amine (or outer) side, 2 acyl side, 3 side chain; on linkers, the order of the positions; unused ones are H or OH. Side chains are listed from the residue outwards. Ends that are not written are not given here. * marks the point of attachment. C20 diacid = O=C(O)CCCCCCCCCCCCCCCCCCC(=O)*; C18 diacid = O=C(O)CCCCCCCCCCCCCCCCC(=O)*; γGlu = O=C(O)[C@H](CCC(=O)[*:2])N[*:1]
T1: human calcitonin receptor (human, UniProt P30988 25-474)
T1 construct: whole, on cells; also called hCT-R; hCTR
T1 sequence (looked up): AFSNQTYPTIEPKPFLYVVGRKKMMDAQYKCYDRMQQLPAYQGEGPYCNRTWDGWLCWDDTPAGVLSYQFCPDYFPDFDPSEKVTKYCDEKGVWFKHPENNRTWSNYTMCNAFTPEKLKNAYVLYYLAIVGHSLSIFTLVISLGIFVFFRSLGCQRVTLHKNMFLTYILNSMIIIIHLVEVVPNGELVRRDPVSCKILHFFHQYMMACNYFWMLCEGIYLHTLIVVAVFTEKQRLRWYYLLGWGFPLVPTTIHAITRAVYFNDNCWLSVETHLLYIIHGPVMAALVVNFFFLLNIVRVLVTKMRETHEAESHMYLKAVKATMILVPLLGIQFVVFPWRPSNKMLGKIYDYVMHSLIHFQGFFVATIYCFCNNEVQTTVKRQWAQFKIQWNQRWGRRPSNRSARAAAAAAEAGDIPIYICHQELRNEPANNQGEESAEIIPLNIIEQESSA

B1: [N-terminal(C20 diacid-gGlu), des1, 4Q, 9V, 15Q, 16R, 19R, 21Q, 23Y, 27Q, 30S, 31Q, 32T, 33Y]mimylin (peptide)
peptide: {C20 diacid-γGlu}-ASQLSTAVLGRLSQRLHRLQTYPRTQTGSQTY-NH2
SMILES: CC(C)C[C@H](NC(=O)[C@H](CCCNC(=N)N)NC(=O)CNC(=O)[C@H](CC(C)C)NC(=O)[C@@H](NC(=O)[C@H](C)NC(=O)[C@@H](NC(=O)[C@H](CO)NC(=O)[C@H](CC(C)C)NC(=O)[C@H](CCC(N)=O)NC(=O)[C@H](CO)NC(=O)[C@H](C)NC(=O)CC[C@H](NC(=O)CCCCCCCCCCCCCCCCCCC(=O)O)C(=O)O)[C@@H](C)O)C(C)C)C(=O)N[C@@H](CO)C(=O)N[C@@H](CCC(N)=O)C(=O)N[C@@H](CCCNC(=N)N)C(=O)N[C@@H](CC(C)C)C(=O)N[C@@H](Cc1c[nH]cn1)C(=O)N[C@@H](CCCNC(=N)N)C(=O)N[C@@H](CC(C)C)C(=O)N[C@@H](CCC(N)=O)C(=O)N[C@H](C(=O)N[C@@H](Cc1ccc(O)cc1)C(=O)N1CCC[C@H]1C(=O)N[C@@H](CCCNC(=N)N)C(=O)N[C@H](C(=O)N[C@@H](CCC(N)=O)C(=O)N[C@H](C(=O)NCC(=O)N[C@@H](CO)C(=O)N[C@@H](CCC(N)=O)C(=O)N[C@H](C(=O)N[C@@H](Cc1ccc(O)cc1)C(N)=O)[C@@H](C)O)[C@@H](C)O)[C@@H](C)O)[C@@H](C)O
notes: also called Ex. #132
B2: [N-terminal(C20 diacid-gGlu), des1, 2L, 4Q, 8L, 9V, 15Q, 16R, 19R, 21Q, 23Y, 27Q, 30S, 31Q, 32T, 33Y]mimylin (peptide)
peptide: {C20 diacid-γGlu}-LSQLSTLVLGRLSQRLHRLQTYPRTQTGSQTY-NH2
SMILES: CC(C)C[C@H](NC(=O)CC[C@H](NC(=O)CCCCCCCCCCCCCCCCCCC(=O)O)C(=O)O)C(=O)N[C@@H](CO)C(=O)N[C@@H](CCC(N)=O)C(=O)N[C@@H](CC(C)C)C(=O)N[C@@H](CO)C(=O)N[C@H](C(=O)N[C@@H](CC(C)C)C(=O)N[C@H](C(=O)N[C@@H](CC(C)C)C(=O)NCC(=O)N[C@@H](CCCNC(=N)N)C(=O)N[C@@H](CC(C)C)C(=O)N[C@@H](CO)C(=O)N[C@@H](CCC(N)=O)C(=O)N[C@@H](CCCNC(=N)N)C(=O)N[C@@H](CC(C)C)C(=O)N[C@@H](Cc1c[nH]cn1)C(=O)N[C@@H](CCCNC(=N)N)C(=O)N[C@@H](CC(C)C)C(=O)N[C@@H](CCC(N)=O)C(=O)N[C@H](C(=O)N[C@@H](Cc1ccc(O)cc1)C(=O)N1CCC[C@H]1C(=O)N[C@@H](CCCNC(=N)N)C(=O)N[C@H](C(=O)N[C@@H](CCC(N)=O)C(=O)N[C@H](C(=O)NCC(=O)N[C@@H](CO)C(=O)N[C@@H](CCC(N)=O)C(=O)N[C@H](C(=O)N[C@@H](Cc1ccc(O)cc1)C(N)=O)[C@@H](C)O)[C@@H](C)O)[C@@H](C)O)[C@@H](C)O)C(C)C)[C@@H](C)O
notes: also called Ex. #133
B3: [N-terminal(C20 diacid-gGlu), 4Q, 9V, 15Q, 21Q, 23Y, 27G, 30S, 31G, 32T, 33Y]mimylin (peptide)
peptide: {C20 diacid-γGlu}-EASQLSTAVLGRLSQELHELQTYPRTGTGSGTY-NH2
SMILES: CC(C)C[C@H](NC(=O)[C@H](CCCNC(=N)N)NC(=O)CNC(=O)[C@H](CC(C)C)NC(=O)[C@@H](NC(=O)[C@H](C)NC(=O)[C@@H](NC(=O)[C@H](CO)NC(=O)[C@H](CC(C)C)NC(=O)[C@H](CCC(N)=O)NC(=O)[C@H](CO)NC(=O)[C@H](C)NC(=O)[C@H](CCC(=O)O)NC(=O)CC[C@H](NC(=O)CCCCCCCCCCCCCCCCCCC(=O)O)C(=O)O)[C@@H](C)O)C(C)C)C(=O)N[C@@H](CO)C(=O)N[C@@H](CCC(N)=O)C(=O)N[C@@H](CCC(=O)O)C(=O)N[C@@H](CC(C)C)C(=O)N[C@@H](Cc1c[nH]cn1)C(=O)N[C@@H](CCC(=O)O)C(=O)N[C@@H](CC(C)C)C(=O)N[C@@H](CCC(N)=O)C(=O)N[C@H](C(=O)N[C@@H](Cc1ccc(O)cc1)C(=O)N1CCC[C@H]1C(=O)N[C@@H](CCCNC(=N)N)C(=O)N[C@H](C(=O)NCC(=O)N[C@H](C(=O)NCC(=O)N[C@@H](CO)C(=O)NCC(=O)N[C@H](C(=O)N[C@@H](Cc1ccc(O)cc1)C(N)=O)[C@@H](C)O)[C@@H](C)O)[C@@H](C)O)[C@@H](C)O
B4: [N-terminal(C20 diacid-gGlu), 2L, 4G, 8L, 9V, 15Q, 21Q, 23Y, 27G, 30S, 31G, 32T, 33Y]mimylin (peptide)
peptide: {C20 diacid-γGlu}-ELSGLSTLVLGRLSQELHELQTYPRTGTGSGTY-NH2
SMILES: CC(C)C[C@H](NC(=O)CNC(=O)[C@H](CO)NC(=O)[C@H](CC(C)C)NC(=O)[C@H](CCC(=O)O)NC(=O)CC[C@H](NC(=O)CCCCCCCCCCCCCCCCCCC(=O)O)C(=O)O)C(=O)N[C@@H](CO)C(=O)N[C@H](C(=O)N[C@@H](CC(C)C)C(=O)N[C@H](C(=O)N[C@@H](CC(C)C)C(=O)NCC(=O)N[C@@H](CCCNC(=N)N)C(=O)N[C@@H](CC(C)C)C(=O)N[C@@H](CO)C(=O)N[C@@H](CCC(N)=O)C(=O)N[C@@H](CCC(=O)O)C(=O)N[C@@H](CC(C)C)C(=O)N[C@@H](Cc1c[nH]cn1)C(=O)N[C@@H](CCC(=O)O)C(=O)N[C@@H](CC(C)C)C(=O)N[C@@H](CCC(N)=O)C(=O)N[C@H](C(=O)N[C@@H](Cc1ccc(O)cc1)C(=O)N1CCC[C@H]1C(=O)N[C@@H](CCCNC(=N)N)C(=O)N[C@H](C(=O)NCC(=O)N[C@H](C(=O)NCC(=O)N[C@@H](CO)C(=O)NCC(=O)N[C@H](C(=O)N[C@@H](Cc1ccc(O)cc1)C(N)=O)[C@@H](C)O)[C@@H](C)O)[C@@H](C)O)[C@@H](C)O)C(C)C)[C@@H](C)O
B5: [N-terminal(C20 diacid-gGlu), des1, 9V, 15Q, 21Q, 23Y, 30S, 31G, 32T, 33Y]mimylin (peptide)
peptide: {C20 diacid-γGlu}-ASELSTAVLGRLSQELHELQTYPRTETGSGTY-NH2
SMILES: CC(C)C[C@H](NC(=O)[C@H](CCCNC(=N)N)NC(=O)CNC(=O)[C@H](CC(C)C)NC(=O)[C@@H](NC(=O)[C@H](C)NC(=O)[C@@H](NC(=O)[C@H](CO)NC(=O)[C@H](CC(C)C)NC(=O)[C@H](CCC(=O)O)NC(=O)[C@H](CO)NC(=O)[C@H](C)NC(=O)CC[C@H](NC(=O)CCCCCCCCCCCCCCCCCCC(=O)O)C(=O)O)[C@@H](C)O)C(C)C)C(=O)N[C@@H](CO)C(=O)N[C@@H](CCC(N)=O)C(=O)N[C@@H](CCC(=O)O)C(=O)N[C@@H](CC(C)C)C(=O)N[C@@H](Cc1c[nH]cn1)C(=O)N[C@@H](CCC(=O)O)C(=O)N[C@@H](CC(C)C)C(=O)N[C@@H](CCC(N)=O)C(=O)N[C@H](C(=O)N[C@@H](Cc1ccc(O)cc1)C(=O)N1CCC[C@H]1C(=O)N[C@@H](CCCNC(=N)N)C(=O)N[C@H](C(=O)N[C@@H](CCC(=O)O)C(=O)N[C@H](C(=O)NCC(=O)N[C@@H](CO)C(=O)NCC(=O)N[C@H](C(=O)N[C@@H](Cc1ccc(O)cc1)C(N)=O)[C@@H](C)O)[C@@H](C)O)[C@@H](C)O)[C@@H](C)O
B6: [des1, 4G, 15Q, 21Q, 23Y, 30S, 31K(C20 diacid-gGlu), 32T, 33Y]mimylin (peptide)
peptide: ASGLSTAALGRLSQELHELQTYPRTETGSK([γGlu-C20 diacid])TY-NH2
modifications: N-terminus assumed
SMILES: CC(C)C[C@H](NC(=O)CNC(=O)[C@H](CO)NC(=O)[C@H](C)N)C(=O)N[C@@H](CO)C(=O)N[C@H](C(=O)N[C@@H](C)C(=O)N[C@@H](C)C(=O)N[C@@H](CC(C)C)C(=O)NCC(=O)N[C@@H](CCCNC(=N)N)C(=O)N[C@@H](CC(C)C)C(=O)N[C@@H](CO)C(=O)N[C@@H](CCC(N)=O)C(=O)N[C@@H](CCC(=O)O)C(=O)N[C@@H](CC(C)C)C(=O)N[C@@H](Cc1c[nH]cn1)C(=O)N[C@@H](CCC(=O)O)C(=O)N[C@@H](CC(C)C)C(=O)N[C@@H](CCC(N)=O)C(=O)N[C@H](C(=O)N[C@@H](Cc1ccc(O)cc1)C(=O)N1CCC[C@H]1C(=O)N[C@@H](CCCNC(=N)N)C(=O)N[C@H](C(=O)N[C@@H](CCC(=O)O)C(=O)N[C@H](C(=O)NCC(=O)N[C@@H](CO)C(=O)N[C@@H](CCCCNC(=O)CC[C@H](NC(=O)CCCCCCCCCCCCCCCCCCC(=O)O)C(=O)O)C(=O)N[C@H](C(=O)N[C@@H](Cc1ccc(O)cc1)C(N)=O)[C@@H](C)O)[C@@H](C)O)[C@@H](C)O)[C@@H](C)O)[C@@H](C)O

Target: T1, human calcitonin receptor
Assay: whole-cell competition vs 125I-human calcitonin (Assay VIIa)
Procedure, shortened: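 BHK tk'ts 13 cells stably co-expressing human calcitonin receptor and a CRE-luciferase reporter, seeded overnight at 37 °C. Bound tracer counted by scintillation after cold HBSS washes and NaOH/SDS lysis; IC₅₀ from one-site competition fit taken as receptor affinity.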

Binder | IC50
{C18 diacid}-EASELSTAALGRLSAELHELATLPRTETGPESP-OH [[N-terminal(C18 diacid), C-terminal(-)]mimylin] | 42.4 nM
EASELSTAALGRLSAELHELATLPRTETGPESP-OH (also called Ex. #135) [[C-terminal(-)]mimylin] | 630 nM
B1 | 1.55 nM
B2 | 9.66 nM
B3 | 0.796 nM
B4 | 3.62 nM
B5 | 0.326 nM
B6 | 1.27 nM
LSGLSTAVLGRLSQELHELQTYPRTETGSQTY-NH2 (backbone without side chain) [[des1, 2L, 4G, 9V, 15Q, 21Q, 23Y, 30S, 31Q, 32T, 33Y]mimylin] | 0.959 nM

From patent US20160272683A1 (Novo Nordisk, published 2016)
